Here are results for 4 molecules from paper PMC11558545 (2024).

“And” between values parts separate entries of the source, which are not always exact repeats. Identical values can stand only once. Like-named read-outs stand apart in the source and are kept apart here. Square brackets hold non-standard residues; d marks the D form. Ends that are not written are not given here. pT = C[C@@H](OP(=O)(O)O)[C@H](N)C(=O)O; pS = N[C@@H](COP(=O)(O)O)C(=O)O

For experiment [1], the target named is T1, At14-3-3 λ^N233A (Arabidopsis thaliana, UniProt P48349 1-248, N233A).
T1 sequence: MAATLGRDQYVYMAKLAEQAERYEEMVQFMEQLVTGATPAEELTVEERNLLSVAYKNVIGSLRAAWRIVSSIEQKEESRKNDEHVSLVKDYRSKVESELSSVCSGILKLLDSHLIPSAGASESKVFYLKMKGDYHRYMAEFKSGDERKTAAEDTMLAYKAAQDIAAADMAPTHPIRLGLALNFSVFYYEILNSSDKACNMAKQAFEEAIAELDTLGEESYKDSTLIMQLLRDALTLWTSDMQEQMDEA
Kind of experiment: ITC. In general terms: Isothermal titration calorimetry measures the heat released or taken up as one component is titrated into another.

Experiment [2] deals with T2, Arabidopsis 14-3-3 isoform kappa (At14-3-3-κ^1−248) (Arabidopsis thaliana, UniProt P48348 1-248).
T2 chain: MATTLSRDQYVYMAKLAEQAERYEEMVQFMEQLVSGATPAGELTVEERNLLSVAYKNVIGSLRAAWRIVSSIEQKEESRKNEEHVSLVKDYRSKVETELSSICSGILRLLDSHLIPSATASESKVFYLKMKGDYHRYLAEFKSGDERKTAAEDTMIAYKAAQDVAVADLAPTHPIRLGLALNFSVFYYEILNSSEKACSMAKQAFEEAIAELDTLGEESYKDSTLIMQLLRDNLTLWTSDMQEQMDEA
Kind of experiment: ITC.

Experiment [3] has as its target T3, Arabidopsis 14-3-3 lambda (At14-3-3-λ^1−248) (Arabidopsis thaliana, UniProt P48349 1-248).
T3 chain: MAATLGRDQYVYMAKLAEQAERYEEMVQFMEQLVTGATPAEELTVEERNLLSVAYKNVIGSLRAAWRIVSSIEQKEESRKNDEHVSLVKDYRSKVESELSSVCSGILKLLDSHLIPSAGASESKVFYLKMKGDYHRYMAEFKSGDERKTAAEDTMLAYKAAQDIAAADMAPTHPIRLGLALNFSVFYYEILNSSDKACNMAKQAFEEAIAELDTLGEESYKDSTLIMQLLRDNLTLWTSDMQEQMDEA
Briefly: ITC.

Experiment [4] addresses T4, Arabidopsis 14-3-3 omega, full length (At14-3-3-ω^1−259) (Arabidopsis thaliana, UniProt Q01525 1-259).
T4 chain: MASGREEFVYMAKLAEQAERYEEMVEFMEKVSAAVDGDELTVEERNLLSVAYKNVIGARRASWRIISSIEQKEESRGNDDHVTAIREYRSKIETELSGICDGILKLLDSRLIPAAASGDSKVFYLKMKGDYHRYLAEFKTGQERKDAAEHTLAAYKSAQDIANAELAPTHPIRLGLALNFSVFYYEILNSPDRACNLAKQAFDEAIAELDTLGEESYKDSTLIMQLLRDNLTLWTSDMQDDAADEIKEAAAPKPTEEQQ
Briefly: ITC.

Experiment [5] addresses T2, Arabidopsis 14-3-3 isoform kappa …. Briefly: ITC.
Experiment [6] has as its target T5, biotinylated 14-3-3 ω dimer (Arabidopsis thaliana, UniProt Q01525 1-259, biotin (EZ-Link NHS-Biotin, equimolar amounts of protein and biotin; sites not stated)).
T5 chain: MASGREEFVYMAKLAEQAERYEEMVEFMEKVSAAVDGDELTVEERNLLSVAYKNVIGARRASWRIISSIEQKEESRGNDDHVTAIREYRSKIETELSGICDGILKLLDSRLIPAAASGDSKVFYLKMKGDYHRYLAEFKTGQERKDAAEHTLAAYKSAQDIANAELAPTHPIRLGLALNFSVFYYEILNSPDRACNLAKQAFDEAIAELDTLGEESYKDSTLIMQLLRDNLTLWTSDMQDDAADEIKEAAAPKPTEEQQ

As to RKL[pT]FA [pBRI1^869−874 peptide], the Kd in experiment [1] is 40 µM; in experiment [2] it was 16.7 µM and 17 µM.
In the case of RGELF[pS]AP [pBKI1^265−272 peptide], the Kd in experiment [1] is 3.7 µM; in experiment [3] it was 5.4 µM; in experiment [4], 6.4 µM; in experiment [5], 14.4 µM.
RISN[pS]AP [pBZR1^169−175 peptide] showed a koff in experiment [6] of 0.87 s⁻¹. Moreover, the dissociation constant Kd in experiment [1] was 5 µM; in experiment [3], 0.81 µM; in experiment [4], 0.88 µM; in experiment [5], 0.57 µM; in experiment [2], 0.38 µM and 0.4 µM.
In the case of RISN[pS]CPV[pT]PPVSSPT [pBZR1^169−184 peptide], in experiment [2], the Kd was 3.1 µM and 3 µM.

By Kd is commonly meant the equilibrium constant for the complex coming apart. Lower therefore signals higher affinity. The term koff denotes the first-order rate constant of dissociation. The low end stands for slow dissociation, the high end for fast dissociation.
